This note sets out measurements from CN116836278A.

Broadly, the Kd is the free concentration of one partner at which half of the binding sites on the other are occupied at equilibrium, for simple one-to-one binding. Usually koff stands for a measure of how fast the partners let go of each other. Read a low koff as a long-lived complex. A word on the kon: it is the rate constant with which the complex forms. Low values mean slow association, high ones fast association.

The target of assay [1] is Prog-Albumin偶联物(购自益缪诺，货号PROGO2). The assay can be described thus: indirect ELISA, Prog-Albumin conjugate coated at 3 ug/ml, antibody at 125 ng/ml.
The target is the same in assay [2]. The assay can be described thus: indirect ELISA, Prog-Albumin conjugate coated at 3 ug/ml, antibody at 250 ng/ml.
Assay [3] has the same target. As to the kind of experiment: indirect ELISA, Prog-Albumin conjugate coated at 3 ug/ml, antibody at 62.5 ng/ml.
The target is the same in assay [4]. As to the kind of experiment: indirect ELISA, Prog-Albumin conjugate coated at 3 ug/ml, antibody at 31.25 ng/ml. A general note: In an ELISA, binding on a coated surface is turned into a signal by an enzyme label.
For assay [5] the target is unchanged. The assay can be described thus: indirect ELISA, Prog-Albumin conjugate coated at 3 ug/ml, antibody at 15.625 ng/ml.
The target is the same in assay [6]. As to the kind of experiment: biolayer interferometry, AMC sensor, antibody immobilised at 10 ug/ml, Prog-Albumin conjugate in dilution series. Background: BLI is a label-free optical method that tracks binding on a fibre tip over time.

As for 对照 (antibody), the OD450 in assay [1] was 1.85 OD; in assay [2], 2.19 OD; in assay [3], 0.686 OD; in assay [4], 0.319 OD; in assay [5], 0.148 OD. Further, the Kd in assay [6] was 9.12 nM. In assay [6], this molecule had an off-rate (koff) of 0.0002 s⁻¹. The molecule further came in with a kon in assay [6] of 21900 M⁻¹ s⁻¹.

B1: Anti-Prog-5B3mut1 (antibody, V domains shown)
VH: QVRLQESGPSLVKPSQTLSLTCTVSGFELTSKAVGWVRQAPGKVPEWLGSIVSGGATYYDPALKSRLTITRDTSKSQVSLSISSVSSEDTAEYWCVRASYAAGIWYFDYWGPGLLVTVSS
VL: QAVLTQPPSVSGSLGQRVSLTCSGSSTNIGGGSYVHWYQRLPASGLKTIIYGTSRRPSGVPDRFSGSRSGNTATLTITSLQAEDEADYYCATEDSGSYPFGSGTRLTVLG
B1: the OD450 in assay [1] came to 1.92 OD; in assay [2], 2.22 OD; in assay [3] it was 0.94 OD; in assay [4] it was 0.566 OD; in assay [5] it was 0.32 OD. The molecule also had a Kd in assay [6] of 0.168 nM. The molecule further had a dissociation rate constant (koff) in assay [6] of 0.00032 s⁻¹. This molecule gave an association rate constant (kon) in assay [6] of 1.91e+06 M⁻¹ s⁻¹.

B2: Anti-Prog-5B3mut2 (antibody, part only; not given: light chain, part only)
heavy: QVRLQESGPSLVKPSQTLSLTCTVSGFELTSKAVGWVRQAPGKVPEWLGSIVSGGATYYDPALKSRLTITRDTSKSQVSLSISSVSSEDTAEYWCVRASYAAGIWYFDYWGPGLLVTVSSASTTPPKVYPLTSCCGDTSSSIVTLGCLVSSYMPEPVTVTWNSGALTSGVHTFPAILQSSGLYSLSSVVTVPASTSGAQTFICNVAHPASSTKVDKRVGLSSDYSKCSKPPCVSRPSVFIFPPKPKDSLMITGTPEVTCVVVDVGQGDPEVQFSWFVDNVEVRTARTKPREEQFNSTFRVVSALPIQHDHWTGGKEFKCKVHSKGLPAPLVRTISRAKGQAREPQVYVLAPPQEELSKSTLSVTCLVTGFYPDYIAVEWQRARQPESEDKYGTTTSQLDADGSYFLYSRLRVDKSSWQRGDTYACVVMHEALHNHYTQKSISKPPGK
B2: the OD450 in assay [1] worked out at 2.06 OD; in assay [2], 2.36 OD; in assay [3] it was 1.07 OD; in assay [4] it was 0.603 OD; in assay [5], 0.36 OD. In addition, the dissociation constant Kd in assay [6] was determined as 0.33 nM. In addition, the off-rate constant (koff) in assay [6] turned out to be 0.00027 s⁻¹. This molecule also yielded an association rate constant (kon) in assay [6] of 819000 M⁻¹ s⁻¹.
